Several values for one entry are separate records, joined by “and”; a condition that tells them apart may be missing. Equal entries are not always repeated.
Key:
NKG2D-Fc = NKG2D-Fc (UniProt P26718); test: SPR; format not told in the text (Supplementary Figure S1A)
[1] = target: ULBP1 on transduced HEK293 cells (UniProt Q9BZM6); test: flow cytometry on cells; ULBP1 (or ULBP3) HEK293 cells pretreated with sU20 at various concentrations for 5 minutes on ice, then stained with 5 nM NKG2D-Fc
ULBP1-Fc [2] = test: SPR; Biacore 3000; biotinylated ULBP1-Fc (1000-2500 RU) on a Neutravidin coated CM5 chip; U20 injected at 0.125-32 μM; CD200 receptor Fc flow cell subtracted; equilibrium fit, one site specific binding, apparent; 20°C
[3] = target: ULBP1-6xHIS soluble construct (ULBP1-6H); test: SEC-SAXS; equimolar mixture of EndoH-treated U20 and ULBP1-6H, 4.5 mg/mL, Superdex 200 Increase 5/150 GL in line with SAXS
[4] = target: Soluble U20 extracellular domain (sU20) of HHV-6B (HHV-6B); test: SEC-MALS; U20 with intact high mannose glycans, alone; 1 mg/ml, PBS, room temperature
[5] = target: Soluble U20 extracellular domain (sU20) of HHV-6B (HHV-6B); test: SEC-MALS; EndoH-treated U20 alone; 1 mg/ml, PBS, room temperature
ULBP1-Fc [6] = test: SEC-MALS; EndoH-deglycosylated U20 with ULBP1-Fc; 1 mg/ml, PBS, room temperature, WTC-030S5 column
[7] = target: ULBP1 on transduced HEK293 cells (UniProt Q9BZM6); test: flow cytometry on cells; ULBP1 expressing cells pretreated with soluble U20 at various concentrations, then stained with APC conjugated anti-ULBP1 (R&D Systems FAB1380A)
[8] = target: Soluble U20 extracellular domain (sU20) of HHV-6B (HHV-6B); test: SEC-SAXS; EndoH-treated U20 alone, 4.5 mg/mL, Superdex 200 Increase 5/150 GL in line with SAXS; mass by Porod volume

Chain of Soluble U20 extracellular domain (sU20) of HHV-6B (domain or fragment) (Q9QJ46 16-321 limits assumed): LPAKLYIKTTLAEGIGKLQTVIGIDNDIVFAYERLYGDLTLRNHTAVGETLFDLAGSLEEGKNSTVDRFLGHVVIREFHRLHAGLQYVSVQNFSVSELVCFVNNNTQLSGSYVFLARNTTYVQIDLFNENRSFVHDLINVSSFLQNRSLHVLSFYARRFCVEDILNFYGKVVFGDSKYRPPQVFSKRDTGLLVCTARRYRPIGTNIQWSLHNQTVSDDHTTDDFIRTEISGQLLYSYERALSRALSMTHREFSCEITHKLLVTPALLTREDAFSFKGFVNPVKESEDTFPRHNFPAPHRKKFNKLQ
Chain of NKG2D-Fc (P26718 73-216): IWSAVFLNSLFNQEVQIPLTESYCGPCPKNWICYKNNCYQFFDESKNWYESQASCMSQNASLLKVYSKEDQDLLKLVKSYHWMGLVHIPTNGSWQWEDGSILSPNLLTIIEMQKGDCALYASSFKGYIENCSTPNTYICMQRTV

| Substance | Kd (NKG2D-Fc) [nM] | decrease in NKG2D-Fc binding to ULBP1 cells at 5 μM sU20 [1] [%] | dissociation half-life (ULBP1-Fc [2]) | stoichiometry N [3] | stoichiometry N [4] | stoichiometry N [5] | stoichiometry N (ULBP1-Fc [6]) | reduction of anti-ULBP1 antibody binding to ULBP1 cells at 0.125 μM sU20 [7] [%] | stoichiometry N [8] |
| --- | --- | --- | --- | --- | --- | --- | --- | --- | --- |
| ULBP1-6xHIS soluble construct (ULBP1-6H) (domain or fragment) | 1000 |  |  |  |  |  |  |  |  |
| Soluble U20 extracellular domain (sU20) of HHV-6B (domain or fragment) |  | 90 | 1.05 min and 2.07 min | 1 | 2 | 2 | 1 | 60 | 2 |

Source: publication PMC11215065
